Experimental data as given in article doi:10.1101/2023.10.24.563710 (bioRxiv, 2023).

B1: P116 ectodomain (residues 30-957), C-terminally shortened and HIS-tagged (domain or fragment, Mycoplasma pneumoniae, UniProt P75556 30-957, looked up)
chain: NKTHQVEHESEQSDFQDIRFGLNSVKLPKAQPAAATRITVENGTDKLVNYKSSPQQLFLAKNALKDKLQGEFDKFLSDAKAFPALTADLQEWVDQQLFNPNQSFFDLSAPRSNFTLSSDKKASLDFIFRFTNFTESVQLLKLPEGVSVVVDSKQSFDYYVNASAQKLLVLPLSLPDYTLGLNYMFDHITLNGKVVNKFSFNPFKTNLNLAFSNVYNGVDVFEAQKNLVGKGKYLNTHVKAEDVKKDVNANIKNQFDIAKIIAELMGKALKEFGNQQEGQPLSFLKVMDKVKEDFEKLFNLVRPGLGKFVKDLIQSSSQAENKITVYKLIFDNKKTILNLLKELSIPELNSSLGLVDVLFDGITDSDGLYERLQSFKDLIVPAVKTNEKTAALSPLIEELLTQKDTYVFDLIQKHKGILTNLLKNFLADFQKSTPFMADQVAIFTELFDNEGAFDLFGEADFVDKIAELFLTKRTVKNGEKIETKDSLLVTSLKSLLGEKVAALGDLLDSYIFKNELLNRSVEVAKAEAKDTKGATDYKKEQAKALKKLFKHIGENTLSKTNLDKITLKEVKNTENVELEETETTLKVKKLDVEYKVELGNFEIKNGLIKAMLEFLPDTKDLETTLDKLLFKGESYKAMKDKYIKEGFPGYGWAKGVVPGAFESIENTFKSAIDKTKSIRDLFGDMLFGNDLSSVKETDSFITLGGSFDIKYGGENLNVLPAYYSLINSEIGYQIIGVDTTIDATKVKVELKNKEYKGKSPAINGQVKLSQSFFNVWTNMFDSITKQIFQKKYEFKDNIQVFARNEDNTSRLELDISDPEQRVIPFAFVDGFGIQLKAVDKNITKEAGNTEPKSPVIQLYEALNKEKDQKQQSKQSPKQLDTKTQLGYLLKLGDNWSKDDYKSLIDDTIINNNYLEASFNSKITVDRLG
B2: ΔN-P116 (residues 246-818), truncated N-terminal domain and F-loop (domain or fragment, Mycoplasma pneumoniae, UniProt P75556 246-818, looked up)
chain: GVDVFEAQKNLVGKGKYLNTHVKAEDVKKDVNANIKNQFDIAKIIAELMGKALKEFGNQQEGQPLSFLKVMDKVKEDFEKLFNLVRPGLGKFVKDLIQSSSQAENKITVYKLIFDNKKTILNLLKELSIPELNSSLGLVDVLFDGITDSDGLYERLQSFKDLIVPAVKTNEKTAALSPLIEELLTQKDTYVFDLIQKHKGILTNLLKNFLADFQKSTPFMADQVAIFTELFDNEGAFDLFGEADFVDKIAELFLTKRTVKNGEKIETKDSLLVTSLKSLLGEKVAALGDLLDSYIFKNELLNRSVEVAKAEAKDTKGATDYKKEQAKALKKLFKHIGENTLSKTNLDKITLKEVKNTENVELEETETTLKVKKLDVEYKVELGNFEIKNGLIKAMLEFLPDTKDLETTLDKLLFKGESYKAMKDKYIKEGFPGYGWAKGVVPGAFESIENTFKSAIDKTKSIRDLFGDMLFGNDLSSVKETDSFITLGGSFDIKYGGENLNVLPAYYSLINSEIGYQIIGVDTTIDATKVKVELKNKEYKGKSPAINGQVKLSQSFFNVWTNMFDSITKQIFQ

Target: the molecule itself
Test: cryo-EM structure

Protein | stoichiometry N
B1 | 2
B2 | 2
